Results on ten molecules are retold here after patent US20240287172A1 (SCIRHOM, published 2024).

The labels stand for the following.
T1: hiR1-FL-WT-T7 (human, UniProt Q96CC6 1-855)
T1 construct: on MEF-DKO cells
T1 sequence: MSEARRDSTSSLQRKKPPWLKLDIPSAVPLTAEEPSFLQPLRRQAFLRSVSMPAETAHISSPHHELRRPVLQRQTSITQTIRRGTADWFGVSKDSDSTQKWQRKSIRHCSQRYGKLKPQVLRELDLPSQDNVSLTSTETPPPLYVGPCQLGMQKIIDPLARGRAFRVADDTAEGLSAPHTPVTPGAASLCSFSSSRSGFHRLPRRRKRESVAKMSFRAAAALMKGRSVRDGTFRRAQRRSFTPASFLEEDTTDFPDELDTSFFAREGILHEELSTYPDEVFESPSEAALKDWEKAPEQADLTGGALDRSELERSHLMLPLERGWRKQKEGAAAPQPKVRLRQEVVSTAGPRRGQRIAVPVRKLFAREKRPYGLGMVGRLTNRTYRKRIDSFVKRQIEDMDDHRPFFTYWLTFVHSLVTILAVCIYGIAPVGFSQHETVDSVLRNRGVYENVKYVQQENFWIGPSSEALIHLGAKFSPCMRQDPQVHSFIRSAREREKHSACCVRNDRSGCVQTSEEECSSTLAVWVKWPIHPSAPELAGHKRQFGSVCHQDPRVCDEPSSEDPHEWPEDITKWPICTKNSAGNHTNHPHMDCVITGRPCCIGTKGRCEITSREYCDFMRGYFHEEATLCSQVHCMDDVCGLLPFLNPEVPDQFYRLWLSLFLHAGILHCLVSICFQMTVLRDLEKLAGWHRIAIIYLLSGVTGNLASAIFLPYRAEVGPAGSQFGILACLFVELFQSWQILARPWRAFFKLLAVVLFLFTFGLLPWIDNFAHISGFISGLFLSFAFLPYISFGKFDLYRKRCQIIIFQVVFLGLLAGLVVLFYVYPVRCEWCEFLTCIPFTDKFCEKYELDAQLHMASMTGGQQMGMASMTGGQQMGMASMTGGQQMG

T2: human iRhom2, endogenously expressed (human, UniProt Q6PJF5 1-856)
T2 construct: also called RHBDF2
T2 sequence: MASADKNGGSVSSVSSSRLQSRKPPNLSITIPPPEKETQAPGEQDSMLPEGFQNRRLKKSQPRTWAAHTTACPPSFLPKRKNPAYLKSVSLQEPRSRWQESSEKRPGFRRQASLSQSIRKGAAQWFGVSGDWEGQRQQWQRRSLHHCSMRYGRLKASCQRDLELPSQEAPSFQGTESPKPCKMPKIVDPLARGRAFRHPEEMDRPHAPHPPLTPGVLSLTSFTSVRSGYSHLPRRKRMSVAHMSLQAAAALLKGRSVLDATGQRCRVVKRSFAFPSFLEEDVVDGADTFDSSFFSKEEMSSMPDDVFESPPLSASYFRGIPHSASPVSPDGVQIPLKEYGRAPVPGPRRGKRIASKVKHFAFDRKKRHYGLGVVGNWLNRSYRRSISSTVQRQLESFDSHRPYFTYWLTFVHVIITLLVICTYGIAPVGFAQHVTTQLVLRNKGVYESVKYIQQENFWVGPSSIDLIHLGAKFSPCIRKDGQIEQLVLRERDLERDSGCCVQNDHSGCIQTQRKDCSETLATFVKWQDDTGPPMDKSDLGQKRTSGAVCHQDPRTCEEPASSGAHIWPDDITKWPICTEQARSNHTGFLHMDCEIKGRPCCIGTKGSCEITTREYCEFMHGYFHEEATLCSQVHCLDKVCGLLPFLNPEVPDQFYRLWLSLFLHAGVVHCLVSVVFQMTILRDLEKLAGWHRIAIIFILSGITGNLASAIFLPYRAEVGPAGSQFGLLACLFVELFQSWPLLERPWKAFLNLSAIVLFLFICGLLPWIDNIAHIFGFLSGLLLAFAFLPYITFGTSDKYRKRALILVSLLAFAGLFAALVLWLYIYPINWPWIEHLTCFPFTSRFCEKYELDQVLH

B1: antibody 48 (antibody, V domains shown)
VH: QVQLQQSGTELVRPGTSVKVSCKASGYAFTNYLIEWVKQRPGQGLEWIGVINPGSGFTKYNEKFKGKATLTADKSSSTVYMHLSSLTSEDSAVYFCARGLYRAMDYWGQGTSVTVSS
VL: DIQMTQSPASQSASLGESVTITCLASQTIATWLAWYQQKPGKSPQLLIYGATTLADGVPSRFSGGGSGTKFSFKISSLQAEDFVSYYCQQLYSTPYTFGGGTKLEIK
notes: mouse IgG, kappa light chain; also called clone #48; purified antibody 48
B2: antibody 50 (antibody, V domains shown)
VH: B1 VH with T9A, T16A, T30S, V79A, H82Q
VL: B1 VL with A30G, G50A, T52A, T53S, S85N, L91I
notes: mouse IgG, kappa light chain; also called clone #50; purified antibody 50
B3: antibody 5 (antibody, V domains shown)
VH: QVTLKESGPGILQPSQTLSLTCSFSGFSLSTFGMGVGWIRQPSGKGLEWLAHIWWDDEKYYNSALKSRLTISKATSKNQAFLKIANVDTADTATYYCARISNYGSNYWYFNVWGTGTTVTVSS
VL: QVVLTQSPALMSASPGEKVTMTCSAGSSVSCMYWYQQKPGSSPRVLIYDTSNLASGVPARFTGSGSGTSYSLTISRMEAEDAASYYCQQWNSYPLTFGAGTKLELK
notes: mouse IgG, kappa light chain; also called clone #5; purified antibody 5
B4: antibody 42 (antibody, V domains shown)
VH: B3 VH with F24L, M34R, S63P, A74D, A80V, K83R, S101Q, N111D
VL: LIVLTQSPAIMSASPGEKVTMTCGATSRISYMFWYQQKPGSSPRVLIYDTSNLASGVPVRFSGSGSGTSYSLTISRVEAEDVATYYCQQWNSYPLTFGAGTKLELK
notes: mouse IgG, kappa light chain; also called clone #42; purified antibody 42
B5: antibody 43 (antibody, V domains shown)
VH: B3 VH with T3A, P42S, H52N, E58D, S63P, A74D, T75A, S101G, N111D
VL: B4 VL with L1Q, K18R, G24S, T26N, F33Y, V45L, V77M, V82A, Y86N, N91S
notes: mouse IgG, kappa light chain; also called clone #43; purified antibody 43
B6: antibody 44 (antibody, V domains shown)
VH: B3 VH with G44E, E58D, S63P, A74D, A80I, A85T, D91E, A98S, S101G, N111D
VL: QIVLTQSPAVMSASPGEKVTMTCTASSSVYYMYWYQQTPGSSPRLLIYDTSNLASGVPVRFSGSGSGTSYSLTISRMEAEDAATYYCQQWNTYPLTFGAGTKLELK
notes: mouse IgG, kappa light chain; also called clone #44; purified antibody 44
B7: antibody 22 (antibody, V domains shown)
VH: B3 VH with A80V
VL: B3 VL with C31Y, S84T
notes: mouse IgG, kappa light chain; also called clone #22; purified antibody 22
B8: antibody 16 (antibody, V domains shown)
VH: QVTLKESGPGILQPSQTLSLTCSFSGFSLSTFALGVGWIRQPSGRGLEWLAHIWWDDDKYYNPALKSRLTISKDTSKNHVFLKIANVDTADTATYYCARITTYYYGMDYWGQGTSVTVSS
VL: DIVLSQSPATLSVTPGDSVSLFCRASQSIGNHLHWYQQESHASPRLLIKYASQSISGIPSRFSGSGSGTDFTLSINSVETEDFGMYFCQQSYNWPLTFGAGTKLELK
notes: mouse IgG, kappa light chain; also called clone #16; purified antibody 16
B9: antibody 3 (antibody, V domains shown)
VH: QVTLKESGPGILQPSQTLSLTCSFSGFSLTTFAMGIGWVRQPSGKGLEWLAHIWWDGEKYNNPVLKSRLTISKDTSKNQVFLRIANVDTPDTATYYCARISSIYYIIDNWGQGTSVTVSS
VL: B8 VL with S5T, D17H, F22S, G30S, H32N, Q38K, E39K, A42E, A51V
notes: mouse IgG, kappa light chain; also called clone #3; purified antibody 3
B10: antibody 34 (antibody, V domains shown)
VH: QVTLKESGPGILQPSQTLSLTCSFSGFSLSTFSLGVGWIRQSSGKGLEWLAHIWWDDEKYYNPALKSRLTISKDTSKNQVFLKIANVDAADTATYYCARAYYSKSYYALDYWGQGTSVTVSS
VL: DIQMTQSPSSLSASLGERVSLTCRASQEISGYLSWLQQKPDGTIKRLIYAASTLDSGVPKRFSGSRSGSDYSLAISSLESEDFADYYCLQYANFPFTFGSGTKLEIK
notes: mouse IgG, kappa light chain; also called clone #34; purified antibody 34

Changes are numbered by the printed parent chain.

In one assay the target is T1, hiR1-FL-WT-T7. Kind of assay: FACS, MEF-DKO cells, 3 µg/ml. For orientation: In flow cytometry, cells or beads pass a laser one at a time.
B1: the “loss of binding vs wild type” value is at least 60%.

Turning to B2, the “loss of binding vs wild type” value is at least 95%.

As to B3, the “loss of binding vs wild type” value was at least 95%.

B4: the “loss of binding vs wild type” value is at least 95%.

For the molecule B5, the “loss of binding vs wild type” value is at least 95%.

As to B6, the “loss of binding vs wild type” value is at least 95%.

In the case of B7, the “loss of binding vs wild type” value is at least 95%.

Regarding B8, the “loss of binding vs wild type” value was at least 95%.

Regarding B9, the “loss of binding vs wild type” value was at least 95%.

Take B10: the “loss of binding vs wild type” value was at least 95%.

A further assay deals with T2, human iRhom2, endogenously expressed. Kind of assay: indirect FACS scatchard analysis on THP-1 cells. The protocol:
In brief, human THP-1 cells (American Type Culture Collection, USA) were harvested with 10 mM EDTA in PBS, washed and resuspended in FACS buffer (PBS, 3% FBS, 0.05% sodium azide), and seeded in Nunc U-bottom 96-well plates (Thermo Fisher Scientific, USA) at approximately 3×10⁵ cells per well. In order to pellet cells and remove supernatants, the plates were centrifuged at 1,500 rpm and 4° C. for 3 minutes. For primary staining, cells were resuspended in 100 μl per well of either FACS buffer alone (controls) or serial two-fold dilutions (in total 22 concentrations) of the purified antibodies 3, 5, 16, 22, 34, 42, 43, 44, 48, and 50 of the invention in FACS buffer starting at 40 μg/ml and incubated on ice for 1 hour. Afterwards, plates were centrifuged at 1,500 rpm and 4° C. for 3 minutes and washed twice with 200 μl per well of FACS buffer. For secondary staining, cells were spun down and resuspended in 100 μl per well of PE-conjugated goat anti-mouse IgG F(ab′)2 detection fragment (Dianova, Germany) diluted 1:100 in FACS buffer. Protected from light, the cell suspensions were incubated on ice for 1 hour. Plates were then centrifuged at 1,500 rpm and 4° C. for 3 minutes and washed three times with 200 μl per well of FACS buffer. Finally, cells were resuspended in 150 μl per well of FACS buffer and analyzed using a BD Accuri™ C6 Plus flow cytometer (Becton Dickinson, Germany). Applying Prism8 software (GraphPad Sowtware, USA), the respective KD value for each of the antibodies of the invention were calculated.
Usually Kd stands for the concentration at which binding is half-saturated. The low end stands for a tighter complex, the high end for a looser complex. B1 returned a Kd of 1.73 nM.

Molecule B2 came in with a Kd of 1.43 nM.

B3 gave a Kd of 3.35 nM.

The molecule B4 showed a Kd of 1.9 nM.

On to B5, for which the Kd turned out to be 4.55 nM.

As for B6, the Kd stood at 0.44 nM. This Kd is about 10-fold lower than that of the molecule before.

B7 registered a Kd of 2.04 nM.

B8: the affinity, expressed as Kd, was 0.34 nM.

Turning to B9, the affinity, expressed as Kd, was 2.97 nM.

B10 had a Kd of 1.94 nM. Against the preceding molecule, the Kd is about 1.5-fold lower.
